Experimental data as given in patent US20170283834A1, “Processes for Producing A Fermentation Product Using A Fermenting Organism” (Novozymes A/S, priority 2014, published 2017).

System: zein
Experiment: Relative activity assay of protease variants (zein micro titer plate)
Assay type: biochemical
Conditions: for Relative activity 65° C./60° C.: Table 2
Method: Each well contains 200 microL of 0.05-0.1% of zein (Sigma), 0.25 mM ZnSO4 and 1% of agar in 20 mM sodium acetate buffer, pH 4.5.
Yeast clones on SC-glucose were inoculated to a well of a 96-well micro titre plate containing YPD+Zn medium and cultivated at 28° C. for 3 days. The culture supernatants were applied to a 96-well zein micro titer plate and incubated at at least 2 temperatures (ex. 60° C. and 65° C., 70° C. and 75° C., 70° C. and 80° C.) for more than 4 hours or overnight. The turbidity of zein in the plate was measured as A630 and the relative activity (higher/lower temperatures) was determined as an indicator of thermoactivity improvement. The clones with higher relative activity than the parental variant were selected and the sequence was determined.

B1: JTP005: protease variant of SEQ ID NO: 3: A112P (protein, listed as Thermoascus aurantiacus)
chain: MRLVASLTALVALSVPVFPAAVNVKRASSYLEITLSQVSNTLIKAVVQNTGSDELSFVHLNFFKDPAPVKKVSVYRDGSEVQFEGILSRYKSTGLSRDAFTYLAPGESVEDVFDIASTYDLTSGGPVTIRTEGVVPYATANSTDIAGYISYSSNVLTIDVDGAAAATVSKAITPLDRRTRISSCSGSRQSALTTALRNAASLANAAADAAQSGSASKFSEYFKTTSSSTRQTVAARLRAVAREASSSSSGATTYYCDDPYGYCSSNVLAYTLPSYNIIANCDIFYTYLPPLTSTCHAQDQATTALHEFTHAPGVYSPGTDDLAYGYQAAMGLSSSQAVMNADTYALYANAIYLGC
  Relative activity 65° C./60° C.: 43%

B2: JTP008: protease variant of SEQ ID NO: 3: R2P (protein, listed as Thermoascus aurantiacus)
chain: MRLVASLTALVALSVPVFPAAVNVKRASSYLEITLSQVSNTLIKAVVQNTGSDELSFVHLNFFKDPAPVKKVSVYRDGSEVQFEGILSRYKSTGLSRDAFTYLAPGESVEDVFDIASTYDLTSGGPVTIRTEGVVPYATANSTDIAGYISYSSNVLTIDVDGAAAATVSKAITPLDRRTPISSCSGSRQSALTTALRNAASLANAAADAAQSGSASKFSEYFKTTSSSTRQTVAARLRAVAREASSSSSGATTYYCDDPYGYCSSNVLAYTLPSYNIIANCDIFYTYLPALTSTCHAQDQATTALHEFTHAPGVYSPGTDDLAYGYQAAMGLSSSQAVMNADTYALYANAIYLGC
  Relative activity 65° C./60° C.: 71%

B3: JTP009: protease variant of SEQ ID NO: 3: D79K (protein, listed as Thermoascus aurantiacus)
chain: MRLVASLTALVALSVPVFPAAVNVKRASSYLEITLSQVSNTLIKAVVQNTGSDELSFVHLNFFKDPAPVKKVSVYRDGSEVQFEGILSRYKSTGLSRDAFTYLAPGESVEDVFDIASTYDLTSGGPVTIRTEGVVPYATANSTDIAGYISYSSNVLTIDVDGAAAATVSKAITPLDRRTRISSCSGSRQSALTTALRNAASLANAAADAAQSGSASKFSEYFKTTSSSTRQTVAARLRAVAREASSSSSGATTYYCKDPYGYCSSNVLAYTLPSYNIIANCDIFYTYLPALTSTCHAQDQATTALHEFTHAPGVYSPGTDDLAYGYQAAMGLSSSQAVMNADTYALYANAIYLGC
  Relative activity 65° C./60° C.: 69%

B4: JTP010: protease variant of SEQ ID NO: 3: D79L (protein, listed as Thermoascus aurantiacus)
chain: MRLVASLTALVALSVPVFPAAVNVKRASSYLEITLSQVSNTLIKAVVQNTGSDELSFVHLNFFKDPAPVKKVSVYRDGSEVQFEGILSRYKSTGLSRDAFTYLAPGESVEDVFDIASTYDLTSGGPVTIRTEGVVPYATANSTDIAGYISYSSNVLTIDVDGAAAATVSKAITPLDRRTRISSCSGSRQSALTTALRNAASLANAAADAAQSGSASKFSEYFKTTSSSTRQTVAARLRAVAREASSSSSGATTYYCLDPYGYCSSNVLAYTLPSYNIIANCDIFYTYLPALTSTCHAQDQATTALHEFTHAPGVYSPGTDDLAYGYQAAMGLSSSQAVMNADTYALYANAIYLGC
  Relative activity 65° C./60° C.: 75%

B5: JTP011: protease variant of SEQ ID NO: 3: D79M (protein, listed as Thermoascus aurantiacus)
chain: MRLVASLTALVALSVPVFPAAVNVKRASSYLEITLSQVSNTLIKAVVQNTGSDELSFVHLNFFKDPAPVKKVSVYRDGSEVQFEGILSRYKSTGLSRDAFTYLAPGESVEDVFDIASTYDLTSGGPVTIRTEGVVPYATANSTDIAGYISYSSNVLTIDVDGAAAATVSKAITPLDRRTRISSCSGSRQSALTTALRNAASLANAAADAAQSGSASKFSEYFKTTSSSTRQTVAARLRAVAREASSSSSGATTYYCMDPYGYCSSNVLAYTLPSYNIIANCDIFYTYLPALTSTCHAQDQATTALHEFTHAPGVYSPGTDDLAYGYQAAMGLSSSQAVMNADTYALYANAIYLGC
  Relative activity 65° C./60° C.: 73%

B6: JTP012: protease variant of SEQ ID NO: 3: D79L/S87P (protein, listed as Thermoascus aurantiacus)
chain: MRLVASLTALVALSVPVFPAAVNVKRASSYLEITLSQVSNTLIKAVVQNTGSDELSFVHLNFFKDPAPVKKVSVYRDGSEVQFEGILSRYKSTGLSRDAFTYLAPGESVEDVFDIASTYDLTSGGPVTIRTEGVVPYATANSTDIAGYISYSSNVLTIDVDGAAAATVSKAITPLDRRTRISSCSGSRQSALTTALRNAASLANAAADAAQSGSASKFSEYFKTTSSSTRQTVAARLRAVAREASSSSSGATTYYCLDPYGYCSPNVLAYTLPSYNIIANCDIFYTYLPALTSTCHAQDQATTALHEFTHAPGVYSPGTDDLAYGYQAAMGLSSSQAVMNADTYALYANAIYLGC
  Relative activity 65° C./60° C.: 86%

B7: JTP013: protease variant of SEQ ID NO: 3: D79L/S87P/A112P (protein, listed as Thermoascus aurantiacus)
chain: MRLVASLTALVALSVPVFPAAVNVKRASSYLEITLSQVSNTLIKAVVQNTGSDELSFVHLNFFKDPAPVKKVSVYRDGSEVQFEGILSRYKSTGLSRDAFTYLAPGESVEDVFDIASTYDLTSGGPVTIRTEGVVPYATANSTDIAGYISYSSNVLTIDVDGAAAATVSKAITPLDRRTRISSCSGSRQSALTTALRNAASLANAAADAAQSGSASKFSEYFKTTSSSTRQTVAARLRAVAREASSSSSGATTYYCLDPYGYCSPNVLAYTLPSYNIIANCDIFYTYLPPLTSTCHAQDQATTALHEFTHAPGVYSPGTDDLAYGYQAAMGLSSSQAVMNADTYALYANAIYLGC
  Relative activity 65° C./60° C.: 90%

B8: JTP014: protease variant of SEQ ID NO: 3: D79L/S87P/A112P (protein, listed as Thermoascus aurantiacus)
chain: MRLVASLTALVALSVPVFPAAVNVKRASSYLEITLSQVSNTLIKAVVQNTGSDELSFVHLNFFKDPAPVKKVSVYRDGSEVQFEGILSRYKSTGLSRDAFTYLAPGESVEDVFDIASTYDLTSGGPVTIRTEGVVPYATANSTDIAGYISYSSNVLTIDVDGAAAATVSKAITPLDRRTRISSCSGSRQSALTTALRNAASLANAAADAAQSGSASKFSEYFKTTSSSTRQTVAARLRAVAREASSSSSGATTYYCLDPYGYCSPNVLAYTLPSYNIIANCDIFYTYLPPLTSTCHAQDQATTALHEFTHAPGVYSPGTDDLAYGYQAAMGLSSSQAVMNADTYALYANAIYLGC
  Relative activity 65° C./60° C.: 88%

B9: JTP016: protease variant of SEQ ID NO: 3: A73C (protein, listed as Thermoascus aurantiacus)
chain: MRLVASLTALVALSVPVFPAAVNVKRASSYLEITLSQVSNTLIKAVVQNTGSDELSFVHLNFFKDPAPVKKVSVYRDGSEVQFEGILSRYKSTGLSRDAFTYLAPGESVEDVFDIASTYDLTSGGPVTIRTEGVVPYATANSTDIAGYISYSSNVLTIDVDGAAAATVSKAITPLDRRTRISSCSGSRQSALTTALRNAASLANAAADAAQSGSASKFSEYFKTTSSSTRQTVAARLRAVAREASSSSSGCTTYYCDDPYGYCSSNVLAYTLPSYNIIANCDIFYTYLPALTSTCHAQDQATTALHEFTHAPGVYSPGTDDLAYGYQAAMGLSSSQAVMNADTYALYANAIYLGC
  Relative activity 65° C./60° C.: 52%

B10: JTP019: protease variant of SEQ ID NO: 3: A126V (protein, listed as Thermoascus aurantiacus)
chain: MRLVASLTALVALSVPVFPAAVNVKRASSYLEITLSQVSNTLIKAVVQNTGSDELSFVHLNFFKDPAPVKKVSVYRDGSEVQFEGILSRYKSTGLSRDAFTYLAPGESVEDVFDIASTYDLTSGGPVTIRTEGVVPYATANSTDIAGYISYSSNVLTIDVDGAAAATVSKAITPLDRRTRISSCSGSRQSALTTALRNAASLANAAADAAQSGSASKFSEYFKTTSSSTRQTVAARLRAVAREASSSSSGATTYYCDDPYGYCSSNVLAYTLPSYNIIANCDIFYTYLPALTSTCHAQDQATTVLHEFTHAPGVYSPGTDDLAYGYQAAMGLSSSQAVMNADTYALYANAIYLGC
  Relative activity 65° C./60° C.: 69%

B11: JTP021: protease variant of SEQ ID NO: 3: M152R (protein, listed as Thermoascus aurantiacus)
chain: MRLVASLTALVALSVPVFPAAVNVKRASSYLEITLSQVSNTLIKAVVQNTGSDELSFVHLNFFKDPAPVKKVSVYRDGSEVQFEGILSRYKSTGLSRDAFTYLAPGESVEDVFDIASTYDLTSGGPVTIRTEGVVPYATANSTDIAGYISYSSNVLTIDVDGAAAATVSKAITPLDRRTRISSCSGSRQSALTTALRNAASLANAAADAAQSGSASKFSEYFKTTSSSTRQTVAARLRAVAREASSSSSGATTYYCDDPYGYCSSNVLAYTLPSYNIIANCDIFYTYLPALTSTCHAQDQATTALHEFTHAPGVYSPGTDDLAYGYQAARGLSSSQAVMNADTYALYANAIYLGC
  Relative activity 65° C./60° C.: 59%

B12: JTP004: protease variant of SEQ ID NO: 3: S87P (protein, listed as Thermoascus aurantiacus)
chain: MRLVASLTALVALSVPVFPAAVNVKRASSYLEITLSQVSNTLIKAVVQNTGSDELSFVHLNFFKDPAPVKKVSVYRDGSEVQFEGILSRYKSTGLSRDAFTYLAPGESVEDVFDIASTYDLTSGGPVTIRTEGVVPYATANSTDIAGYISYSSNVLTIDVDGAAAATVSKAITPLDRRTRISSCSGSRQSALTTALRNAASLANAAADAAQSGSASKFSEYFKTTSSSTRQTVAARLRAVAREASSSSSGATTYYCDDPYGYCSPNVLAYTLPSYNIIANCDIFYTYLPALTSTCHAQDQATTALHEFTHAPGVYSPGTDDLAYGYQAAMGLSSSQAVMNADTYALYANAIYLGC
  Relative activity 65° C./60° C.: 45%

B13: JTP036: protease variant of SEQ ID NO: 3: D79L/S87P/D142L (protein, listed as Thermoascus aurantiacus)
chain: MRLVASLTALVALSVPVFPAAVNVKRASSYLEITLSQVSNTLIKAVVQNTGSDELSFVHLNFFKDPAPVKKVSVYRDGSEVQFEGILSRYKSTGLSRDAFTYLAPGESVEDVFDIASTYDLTSGGPVTIRTEGVVPYATANSTDIAGYISYSSNVLTIDVDGAAAATVSKAITPLDRRTRISSCSGSRQSALTTALRNAASLANAAADAAQSGSASKFSEYFKTTSSSTRQTVAARLRAVAREASSSSSGATTYYCLDPYGYCSPNVLAYTLPSYNIIANCDIFYTYLPALTSTCHAQDQATTALHEFTHAPGVYSPGTLDLAYGYQAAMGLSSSQAVMNADTYALYANAIYLGC
Table 3
  Relative activity 70° C./65° C.: 73%
  Relative activity 75° C./65° C.: 73%
